Legend:
PhLOX2 = target: T1, PhLOX2 (Pyropia haitanensis, UniProt R9UEL2); assay: UV absorbance of conjugated diene at […] nm, Lineweaver-Burk; assay type: biochemical; settings: pH 8.0, 20°C, 12 μM enzyme, substrate 20-200 μM; O2 co-substrate
T1 construct: gene lox2; monomer by size exclusion

purified protein [1] = substrate: CC/C=C\C/C=C\C/C=C\C/C=C\C/C=C\C/C=C\CCC(=O)O; assay: purified protein; assay type: biochemical, Pyropia haitanensis; settings: pH 8.0, 20°C, 12 μM enzyme, substrate 20-200 μM, O2 co-substrate
purified protein [2] = substrate: CC/C=C\C/C=C\C/C=C\C/C=C\C/C=C\CCCC(=O)O; assay: purified protein; assay type: biochemical, Pyropia haitanensis; settings: pH 8.0, 20°C, 12 μM enzyme, substrate 20-200 μM, O2 co-substrate
purified protein [3] = substrate: CCCCC/C=C\C/C=C\C/C=C\C/C=C\CCCC(=O)O; assay: purified protein; assay type: biochemical, Pyropia haitanensis; settings: pH 8.0, 20°C, 12 μM enzyme, substrate 20-200 μM, O2 co-substrate

Molecule | Km (PhLOX2) [µM] | Km (purified protein [1]) [µM] | kcat (purified protein [1]) [s⁻¹] | kcat/Km (purified protein [1]) [M⁻¹ s⁻¹] | Km (purified protein [2]) [µM] | kcat (purified protein [2]) [s⁻¹] | kcat/Km (purified protein [2]) [M⁻¹ s⁻¹] | Km (purified protein [3]) [µM] | kcat (purified protein [3]) [s⁻¹] | kcat/Km (purified protein [3]) [M⁻¹ s⁻¹]
CCCCC/C=C\C/C=C\C/C=C\CCCCC(=O)O [GLA] | 151 | – | – | – | – | – | – | – | – | –
PhLOX2 (Pyropia haitanensis) (protein, monomer by size exclusion) MAHTGTLGGSGCGQPLVAALKAHRTVVDGTIDAPVEAVWAKLRDFGGWPAWWPAMGATAVTPPGPPAVGQERAFTANGRSYVEALTWLDEGAHLLEYRLVSADPPLLDAGARTTFEAVPAGARSTRLTVECAFQPAYNVDAGVIRGGQTAAYESIMEGLQHALVEGPPLRPLRLTVTKNELRREVTAGHLLLTMGGVVLHRLRLTGAGTPVSADAVTVQLSRADAELRLELLDAKDTPVAAGSVAVGALTTPPVTHGVVLSNPHGDPVGTYTVSVVNAPPSSTVEAATALLFSLGKSLAEQLLQTVFFMGHDDGRWAYGEYTAADGTALTMPKYCAVLPPSQAIRPERLGQLFARNAEFLYAQAELLKLLVDTNPPGLEELPQAVRDKLAKEAALQKKIKERVTHEPSPFRLTFGGDHPAPERVIETWRDDEEQAAQMIRGINPMKLRRVTDAAAELPPAFHGLRDDAGRDVAALAAANALFYADYAELMVGELDEETGAYHHQAESAVLDSTVGGVKYWYAPRLVVYKTLAGKLSFLGFTLTRRGDAPGDDEMYTAAGTPPVRYTLAKIHLTCADNQVHQFVSHLGMTHLLAEPFIVAAHNVLPPSHIVSALLAVHFQDTIGINFLARQTLVSTVAPLTDATFSVGTGHALSIFAAAYDGWDFLGDNFVGALAKRGFTADAAADGLHDFYYREDGFRVWNALTRYVSTVLHGHYGAGTAADDAVAADPVLAAWCAEMRDPAAAGVASFPAAFTTVGALVEAVVSIIFLCSAQHAAVNFPQRDYVAYVPNRPDSVRLPMPPRPAAGADNDEAVVGATLPDVAVSVFQTLFAHLLTTPSDAPVSSYAALKEDHPAAWGAFTADLAQLQRDIEARNAALVAANEAPYPYLAPENMPLSIDI | – | 91.59 | 12.6 | 138000 | 54.09 | 62.5 | 1.16e+06 | 114.17 | 47.5 | 416000

From paper PMC4319731, “A Lipoxygenase from Red Alga Pyropia haitanensis, a Unique Enzyme Catalyzing the Free Radical Reactions of Polyunsaturated Fatty Acids with Triple Ethylenic Bonds” (PLoS ONE, 2015)
